In US20150258192A1, “COMPOSITIONS AND METHODS FOR PREVENTING OR TREATING CHRONIC LUNG ALLOGRAFT DYSFUNCTION (CLAD) AND IDIOPATHIC PULMONARY FIBROSIS (IPF)” (priority 2014, published 2015):
No end group written: not given here.

Experiments:
Test in all cases: Kinase Profiling Assay
Assay type in all cases: biochemical
Conditions in all cases: peptide 100 μM
FAK(h) = FAK(h) (Homo sapiens, UniProt Q05397)
Summary of the method: (§1)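 Each kinase activity was measured in duplicate. Phosphorylation of a positively charged substrate with radiolabeled phosphate from ATP was captured on a negatively charged filter, counted by scintillation and expressed relative to a 100% activity control. MK2 inhibitory peptides were screened for specificity across 266 human kinases.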

PDK1(h) = target: T1, PDK1(h) (Homo sapiens, UniProt O15530)
T1 sequence (O15530 1-556): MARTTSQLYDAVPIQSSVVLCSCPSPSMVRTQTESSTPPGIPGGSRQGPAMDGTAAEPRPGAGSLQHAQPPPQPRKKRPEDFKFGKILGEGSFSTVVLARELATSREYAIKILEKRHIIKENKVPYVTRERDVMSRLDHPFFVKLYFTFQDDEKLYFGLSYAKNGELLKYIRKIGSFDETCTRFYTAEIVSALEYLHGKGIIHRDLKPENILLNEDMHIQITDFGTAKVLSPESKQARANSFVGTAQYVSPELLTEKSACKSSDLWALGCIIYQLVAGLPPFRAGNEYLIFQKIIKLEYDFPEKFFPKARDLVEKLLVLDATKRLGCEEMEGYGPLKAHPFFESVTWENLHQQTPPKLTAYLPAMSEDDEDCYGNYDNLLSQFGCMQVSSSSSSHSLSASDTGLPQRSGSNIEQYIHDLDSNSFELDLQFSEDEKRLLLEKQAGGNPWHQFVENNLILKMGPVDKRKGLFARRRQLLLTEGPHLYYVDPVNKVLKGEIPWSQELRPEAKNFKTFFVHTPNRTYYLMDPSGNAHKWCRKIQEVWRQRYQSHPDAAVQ
Summary of the method: as §1

RIPK2(h) = RIPK2(h) (Homo sapiens, UniProt O43353)
RIPK2(h), sequence (O43353 whole entry): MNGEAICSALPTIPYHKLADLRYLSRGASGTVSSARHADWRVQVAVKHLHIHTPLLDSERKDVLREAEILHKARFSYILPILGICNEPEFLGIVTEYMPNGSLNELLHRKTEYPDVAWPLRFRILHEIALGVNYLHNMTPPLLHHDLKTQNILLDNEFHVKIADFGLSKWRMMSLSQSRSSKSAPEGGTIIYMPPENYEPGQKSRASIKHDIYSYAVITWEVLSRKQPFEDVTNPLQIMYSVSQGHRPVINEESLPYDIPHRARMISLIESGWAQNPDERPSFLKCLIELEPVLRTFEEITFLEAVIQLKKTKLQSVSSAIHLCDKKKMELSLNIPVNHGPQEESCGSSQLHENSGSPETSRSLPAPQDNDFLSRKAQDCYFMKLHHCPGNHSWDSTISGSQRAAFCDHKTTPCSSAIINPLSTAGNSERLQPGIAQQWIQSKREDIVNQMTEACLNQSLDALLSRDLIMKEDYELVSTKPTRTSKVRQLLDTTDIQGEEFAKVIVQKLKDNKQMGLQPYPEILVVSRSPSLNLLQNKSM
Summary of the method: as §1

ULK2(h) = target: T2, ULK2(h) (Homo sapiens, UniProt Q8IYT8)
T2 sequence (Q8IYT8 1-1036): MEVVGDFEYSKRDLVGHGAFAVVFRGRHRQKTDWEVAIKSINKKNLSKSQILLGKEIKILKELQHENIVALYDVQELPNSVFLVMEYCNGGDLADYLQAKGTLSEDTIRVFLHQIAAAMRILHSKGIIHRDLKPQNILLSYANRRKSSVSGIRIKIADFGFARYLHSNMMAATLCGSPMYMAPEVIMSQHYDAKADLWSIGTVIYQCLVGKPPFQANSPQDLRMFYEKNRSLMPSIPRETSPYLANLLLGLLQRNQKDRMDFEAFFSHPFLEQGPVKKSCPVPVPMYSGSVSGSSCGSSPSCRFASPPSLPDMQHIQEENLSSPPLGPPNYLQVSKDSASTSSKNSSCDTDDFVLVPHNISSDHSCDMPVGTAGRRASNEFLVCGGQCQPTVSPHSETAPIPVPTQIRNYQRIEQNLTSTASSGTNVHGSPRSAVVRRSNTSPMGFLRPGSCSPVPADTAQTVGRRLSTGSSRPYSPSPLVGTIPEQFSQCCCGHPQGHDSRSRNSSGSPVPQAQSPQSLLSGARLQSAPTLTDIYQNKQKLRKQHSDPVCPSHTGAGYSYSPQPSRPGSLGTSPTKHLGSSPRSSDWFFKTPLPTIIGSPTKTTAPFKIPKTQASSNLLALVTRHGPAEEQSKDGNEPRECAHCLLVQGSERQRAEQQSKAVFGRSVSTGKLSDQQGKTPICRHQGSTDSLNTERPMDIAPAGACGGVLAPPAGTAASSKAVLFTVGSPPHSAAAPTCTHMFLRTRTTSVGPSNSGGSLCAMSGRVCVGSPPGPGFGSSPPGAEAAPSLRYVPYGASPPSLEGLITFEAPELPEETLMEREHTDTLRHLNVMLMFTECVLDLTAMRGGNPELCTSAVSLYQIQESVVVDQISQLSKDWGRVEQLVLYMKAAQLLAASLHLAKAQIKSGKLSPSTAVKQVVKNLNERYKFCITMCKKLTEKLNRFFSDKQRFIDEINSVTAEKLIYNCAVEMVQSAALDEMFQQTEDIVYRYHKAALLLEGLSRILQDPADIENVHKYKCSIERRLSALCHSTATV
Summary of the method: as §1

TAO3(h) = target: T3, TAO3(h) (Homo sapiens, UniProt Q9H2K8)
T3 construct: purchased Millipore
T3 sequence (Q9H2K8 1-898): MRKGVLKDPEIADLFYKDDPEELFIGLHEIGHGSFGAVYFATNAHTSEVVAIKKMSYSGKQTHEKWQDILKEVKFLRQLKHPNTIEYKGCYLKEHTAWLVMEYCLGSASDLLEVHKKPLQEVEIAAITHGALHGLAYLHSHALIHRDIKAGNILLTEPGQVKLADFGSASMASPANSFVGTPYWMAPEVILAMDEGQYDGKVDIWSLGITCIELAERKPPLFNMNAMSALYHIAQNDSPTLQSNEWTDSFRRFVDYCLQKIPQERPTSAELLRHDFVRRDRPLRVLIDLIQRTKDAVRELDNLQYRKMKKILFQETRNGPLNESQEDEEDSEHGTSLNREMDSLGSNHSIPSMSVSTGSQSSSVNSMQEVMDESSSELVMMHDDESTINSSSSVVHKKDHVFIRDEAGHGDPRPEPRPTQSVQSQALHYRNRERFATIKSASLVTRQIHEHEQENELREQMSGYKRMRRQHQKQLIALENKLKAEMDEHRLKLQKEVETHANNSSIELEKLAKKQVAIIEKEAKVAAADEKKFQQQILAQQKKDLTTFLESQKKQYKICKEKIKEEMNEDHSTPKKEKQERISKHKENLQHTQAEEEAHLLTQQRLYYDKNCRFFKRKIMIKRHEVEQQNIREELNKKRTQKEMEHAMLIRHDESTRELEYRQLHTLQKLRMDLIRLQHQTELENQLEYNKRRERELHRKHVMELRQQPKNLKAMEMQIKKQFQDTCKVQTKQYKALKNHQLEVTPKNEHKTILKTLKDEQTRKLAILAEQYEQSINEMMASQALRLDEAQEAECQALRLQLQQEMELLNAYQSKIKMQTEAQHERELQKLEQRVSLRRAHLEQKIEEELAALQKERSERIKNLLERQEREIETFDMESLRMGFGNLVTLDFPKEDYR
Summary of the method: as §1

FAK(h), sequence (Q05397 whole entry): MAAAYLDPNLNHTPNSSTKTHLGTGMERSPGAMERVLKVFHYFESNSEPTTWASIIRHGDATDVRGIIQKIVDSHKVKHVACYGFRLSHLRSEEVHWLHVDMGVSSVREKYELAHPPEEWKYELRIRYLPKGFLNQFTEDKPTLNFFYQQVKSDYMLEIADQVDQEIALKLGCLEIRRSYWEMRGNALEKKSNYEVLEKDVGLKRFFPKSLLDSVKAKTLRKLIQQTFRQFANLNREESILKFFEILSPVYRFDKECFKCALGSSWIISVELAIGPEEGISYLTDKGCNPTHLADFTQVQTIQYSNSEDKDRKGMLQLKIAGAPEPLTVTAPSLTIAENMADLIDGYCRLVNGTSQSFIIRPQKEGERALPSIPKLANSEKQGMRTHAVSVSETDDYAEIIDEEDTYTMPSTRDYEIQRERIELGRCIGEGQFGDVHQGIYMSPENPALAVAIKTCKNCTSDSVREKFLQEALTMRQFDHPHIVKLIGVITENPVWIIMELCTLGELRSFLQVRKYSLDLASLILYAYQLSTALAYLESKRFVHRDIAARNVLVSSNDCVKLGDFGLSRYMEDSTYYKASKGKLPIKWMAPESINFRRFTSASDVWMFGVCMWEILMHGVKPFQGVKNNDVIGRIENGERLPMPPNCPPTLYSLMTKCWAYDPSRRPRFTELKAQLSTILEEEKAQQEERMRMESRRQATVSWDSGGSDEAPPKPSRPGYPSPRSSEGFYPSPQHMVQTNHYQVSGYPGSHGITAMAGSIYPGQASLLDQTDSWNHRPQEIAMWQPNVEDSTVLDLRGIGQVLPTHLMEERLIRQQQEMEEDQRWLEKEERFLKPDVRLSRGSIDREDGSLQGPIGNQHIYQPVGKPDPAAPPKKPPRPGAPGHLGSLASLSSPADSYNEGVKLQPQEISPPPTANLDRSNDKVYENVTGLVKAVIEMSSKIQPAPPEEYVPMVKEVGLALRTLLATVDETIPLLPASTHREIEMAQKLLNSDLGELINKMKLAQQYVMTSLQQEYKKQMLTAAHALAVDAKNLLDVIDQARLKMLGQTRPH

Sequence	% activity (FAK(h)) [%]	% activity (PDK1(h)) [%]	% activity (RIPK2(h)) [%]	% activity (ULK2(h)) [%]	% activity (TAO3(h)) [%]
YARAAARQARAKALNRQLGVA (Mammal) [MMI-0200]	110	143	98	132	
YARAAARQARAKALARQLGVAA [MMI-0100]				123	45
HRRIKAWLKKIKALARQLGVAA (Mammal) [MMI-0500]	94	178	30	124	12
KAFAKLAARLYRKALARQLGVAA [MMI-0400]	96	159	98	131	67
FAKLAARLYRKALARQLGVAA [MMI-0300]		135	97	122	77
